Assay results from US20220002432A1 (VIRTUOSO BINCO, published 2022).
Blank lines part the entries; values can stand above or below the binder they belong to.

Tests used:
cynomolgus CD38 ECD [1] = target: T1, cynomolgus CD38 ECD (cynomolgus, UniProt Q5VAN0 44-301, biotinylated on the AviTag during preparation); assay: SPR (Biacore 8K), antibody captured, antigen injected;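 note: antibodies held on a CM5 chip through anti-human IgG Fc, antigen in 3-fold serial dilutions, 1 min association then 10 min dissociation at 25 °C, 1:1 Langmuir global fit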
T1 construct: also called Cyno-CD38; Avi-Cyno CD38 ECD
Experimental: (§1) The binding kinetics of the anti-CD38 and anti-ICAM1 antibodies were evaluated on a Biacore 8K instrument (GE Healthcare). Biacore Series S CM5 sensor chips were immobilized with monoclonal mouse anti-human IgG (Fc) antibody (human antibody capture kit from GE Healthcare). Antibodies were captured on each flow cell. Serial 3-fold dilutions of each antigen were injected at a flow rate of 30 μl/min. Each sample was analyzed with 1 min association and 10 min dissociation at room temperature (25° C.). After each injection, the chip was regenerated using 3M MgCl₂. A 1:1 Langmuir model of simultaneous fitting of kₒₙ and koff was used for kinetics analysis.

recombinant human CD38 [2] = target: T2, recombinant human CD38 (human, UniProt P28907 43-300, limits assumed); assay: as above
Experimental: as §1

recombinant human CD38 [3] = target: T2, recombinant human CD38; assay: ELISA: plate coated with 1 ug/ml recombinant human CD38 ECD, serially diluted antibody, OD450
Experimental: (§2) The plate was coated overnight at 4° C. with 1 μg/ml recombinant CD38 or ICAM1. After washing 3 times, the plate was blocked with 300 μl 1% BSA in PBST at 37° C. for 1 hour. Serially diluted antibodies were added and incubated at 37° C. for 1 hour. The plate was then washed 4 times with PBST and incubated with 1:5000 diluted 2nd antibody (Sigma, Cat #A0293) at 37° C. for 1 hour.

cynomolgus CD38 ECD [4] = target: T1, cynomolgus CD38 ECD; assay: ELISA: plate coated with 1 ug/ml recombinant cynomolgus CD38 ECD, serially diluted antibody, OD450
Experimental: as §2

[5] = target: T3, CD38 on the surface of Daudi cells (human, UniProt P28907 1-300); assay: flow cytometry, Daudi cells;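 note: purified antibodies incubated with Daudi cells for 1 h at 4 °C, bound antibody detected by fluorescent secondary antibody and read by flow cytometry as MFI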
T3 construct: whole, on cells
Experimental: (§3) Harvested cells were centrifuged at 2000 rpm for 5 min and resuspended with 10-15 ml ice-cold culture medium. Cells were counted and then 3×10⁶ cells were resuspended per mL of blocking buffer (PBS plus 2% FBS). 100 μl of the cell suspension was dispensed into each well of a 96-well plate and incubated at room temperature for 10-20 min. […] While incubating, purified antibodies were diluted to the desired dilution with blocking buffer. After a 10-20 minutes incubation, cells were centrifuged for 5 min at 2000 rmp in a refrigerated centrifuge. Blocking buffer was aspirated, and cells were resuspended in 100 μl/well diluted antibodies and incubated for 1 hour at 4° C. The cells were then washed 3 times with PBS plus 2% FBS. After the final wash, the cells were resuspended in 100 μl 1:500 diluted secondary antibody (Invitrogen, Cat #: A10631) and incubated for 1 hour at 4° C. in the dark. The cells were then washed 3 times with 200 μl PBS by centrifuging at 2000 rpm for 5 min. After the last wash, the cells were resuspended in 300 μl cold PBS and analyzed on a FACSVerse™ (BD Biosciences) flow cytometer.

Rhesus-ICAM1 [6] = target: T4, Rhesus-ICAM1 (rhesus, UniProt Q5NKV6 28-480, limits assumed); assay: ELISA: plate coated with 1 ug/ml recombinant rhesus ICAM1 ECD, serially diluted antibody, OD450
T4 sequence (looked up): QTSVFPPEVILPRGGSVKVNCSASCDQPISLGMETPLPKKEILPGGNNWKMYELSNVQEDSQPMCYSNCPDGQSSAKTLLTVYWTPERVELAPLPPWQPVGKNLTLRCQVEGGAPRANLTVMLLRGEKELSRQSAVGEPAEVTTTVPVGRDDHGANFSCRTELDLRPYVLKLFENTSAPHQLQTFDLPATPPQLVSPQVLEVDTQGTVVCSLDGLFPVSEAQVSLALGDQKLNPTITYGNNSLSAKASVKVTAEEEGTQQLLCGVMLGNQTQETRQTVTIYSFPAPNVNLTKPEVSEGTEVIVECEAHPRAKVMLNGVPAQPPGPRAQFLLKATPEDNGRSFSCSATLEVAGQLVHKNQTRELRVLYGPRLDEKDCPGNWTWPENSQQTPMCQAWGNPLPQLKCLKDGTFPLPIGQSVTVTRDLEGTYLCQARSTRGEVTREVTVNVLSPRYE
Experimental: as §2

recombinant human ICAM1 [7] = target: T5, recombinant human ICAM1 (human, UniProt P05362 28-480, limits assumed); assay: SPR (Biacore 8K), antibody captured, antigen injected
Experimental: as §1

Rhesus-ICAM1 [8] = target: T4, Rhesus-ICAM1; assay: as above
Experimental: as §1

recombinant human ICAM1 [9] = target: T5, recombinant human ICAM1; assay: SPR (Biacore T200), antigen immobilised, antibody injected
Experimental: The binding kinetics of the bispecific anti-CD38/anti-ICAM1 antibodies were evaluated using Biacore T200 (GE Healthcare). The recombinant CD38 or ICAM1 were immobilized at low density on Biacore Series S CM5 sensor chips using the amine coupling kit (GE Healthcare). Serial 3-fold dilutions of each antibody were injected at a flow rate of 30 ul/min. Each sample was analyzed with 3m association and 15 min dissociation at room temperature (25° C.). After each injection, the chip was regenerated using 10 mM Glycine pH1.5. A 1:1 Langmuir model of simultaneous fitting of kₒₙ and koff was used for kinetics analysis.

recombinant human ICAM1 [10] = target: T5, recombinant human ICAM1; assay: ELISA: plate coated with 1 ug/ml recombinant human ICAM1 ECD, serially diluted antibody, OD450
Experimental: as §2

[11] = target: T6, ICAM1 on the surface of DU145 cells (human, UniProt P05362 28-532); assay: flow cytometry, DU145 cells;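 note: purified antibodies in dilution series bound to cells for 1 h at 4 °C, detected with a fluorescent secondary antibody (1 h, 4 °C, dark), read by flow cytometry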
T6 construct: whole, on cells
T6 sequence (P05362 28-532): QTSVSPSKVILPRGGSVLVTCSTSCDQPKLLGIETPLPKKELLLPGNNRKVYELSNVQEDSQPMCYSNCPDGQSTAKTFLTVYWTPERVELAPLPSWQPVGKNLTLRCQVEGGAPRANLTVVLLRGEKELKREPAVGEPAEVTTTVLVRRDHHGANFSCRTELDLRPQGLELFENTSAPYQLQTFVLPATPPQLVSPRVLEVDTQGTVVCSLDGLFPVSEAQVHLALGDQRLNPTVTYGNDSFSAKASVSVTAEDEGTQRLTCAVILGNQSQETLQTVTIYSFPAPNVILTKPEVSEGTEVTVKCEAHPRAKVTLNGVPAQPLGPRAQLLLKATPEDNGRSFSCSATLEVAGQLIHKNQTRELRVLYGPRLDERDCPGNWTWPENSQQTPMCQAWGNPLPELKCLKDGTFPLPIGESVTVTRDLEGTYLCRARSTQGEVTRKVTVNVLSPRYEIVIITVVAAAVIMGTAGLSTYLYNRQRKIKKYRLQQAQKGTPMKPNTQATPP
Experimental: as §3

T5 sequence (P05362 28-480 limits assumed): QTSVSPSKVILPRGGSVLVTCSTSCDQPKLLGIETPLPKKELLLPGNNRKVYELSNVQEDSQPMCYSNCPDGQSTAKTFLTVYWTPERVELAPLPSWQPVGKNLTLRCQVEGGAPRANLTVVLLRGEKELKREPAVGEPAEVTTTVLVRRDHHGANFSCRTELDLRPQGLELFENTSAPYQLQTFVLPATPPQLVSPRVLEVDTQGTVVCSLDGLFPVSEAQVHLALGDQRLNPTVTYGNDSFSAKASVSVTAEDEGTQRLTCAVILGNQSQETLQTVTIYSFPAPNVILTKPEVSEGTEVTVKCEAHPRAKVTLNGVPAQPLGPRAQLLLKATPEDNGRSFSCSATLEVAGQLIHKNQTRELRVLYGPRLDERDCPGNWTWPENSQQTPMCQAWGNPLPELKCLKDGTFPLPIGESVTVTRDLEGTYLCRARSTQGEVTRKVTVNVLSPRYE

Kd (cynomolgus CD38 ECD [1]): 0.42 nM
koff (cynomolgus CD38 ECD [1]): 0.000236 s⁻¹
kon (cynomolgus CD38 ECD [1]): 563000 M⁻¹ s⁻¹
Kd (recombinant human CD38 [2]): 0.27 nM
koff (recombinant human CD38 [2]): 8.13e-05 s⁻¹
kon (recombinant human CD38 [2]): 303000 M⁻¹ s⁻¹
EC50 (read off the curve) (recombinant human CD38 [3]): ~0.06 nM
EC50 (read off the curve) (cynomolgus CD38 ECD [4]): ~0.06 nM
EC50 [5]: 0.9 nM
Max Binding MFI [5]: 1580 MFI
B1: 18E4 (antibody, human IgG1, kappa, V domains shown)
VH: QSLEESGGDLVKPGASLTLTCTASGFSFNNYWICWIRQAPGKGLEWVACIYSPSGDIKYYANWAKGRFTVSKTSSTTVTLQMTSLTGADTATYFCARELSGSSYEGYFESWGPGTLVTVSS
VL: AQVLTQTPSSVSAAVGGTVTINCQCSQSVYGHNWLAWYQHKPGQPPKLLMYRASNLASGVPSRFKGSGSGSQFTLTIGEVQSDDAATYYCQGYYNGGSYAFGGGTEVVVRR
notes: Rabbit-human chimeric anti-CD38: rabbit VH and VL on human IgG1 and kappa constant regions

Kd (cynomolgus CD38 ECD [1]): 0.06 nM
koff (cynomolgus CD38 ECD [1]): 0.000166 s⁻¹
kon (cynomolgus CD38 ECD [1]): 2.64e+06 M⁻¹ s⁻¹
Kd (recombinant human CD38 [2]): 0.15 nM
koff (recombinant human CD38 [2]): 0.000142 s⁻¹
kon (recombinant human CD38 [2]): 923000 M⁻¹ s⁻¹
EC50 (read off the curve) (recombinant human CD38 [3]): ~0.06 nM
EC50 (read off the curve) (cynomolgus CD38 ECD [4]): ~0.06 nM
EC50 [5]: 0.263 nM
Max Binding MFI [5]: 2260 MFI
B2: 17E9 (antibody, human IgG1, kappa, V domains shown)
VH: QSVEESGGRLVTPGTPLTLTCTASGFSLSRYYVTWVRQAPGKGLEWIGIIYISGTTYYATWAKGRFTISKSATTVDLRIASPTTEDTATYFCAAAWPVGTYVLPLWGPGTLVTVSS
VL: AAVLTQTPSPVSAAVGGTVTIKCQSSQSVVNANNLSWYQQKPGQPPKLLIYLASTLASGVPSRFSGSGSGTQFTLTISSVQSDDAATYYCLGVYDDDGDNAFGGGTEVVVKR
notes: as for B1

EC50 (read off the curve) (Rhesus-ICAM1 [6]): ~0.04 nM
Kd (recombinant human ICAM1 [7]): 12.2 nM
koff (recombinant human ICAM1 [7]): 0.00331 s⁻¹
kon (recombinant human ICAM1 [7]): 272000 M⁻¹ s⁻¹
Kd (Rhesus-ICAM1 [8]): 17.7 nM
koff (Rhesus-ICAM1 [8]): 0.0224 s⁻¹
kon (Rhesus-ICAM1 [8]): 1.27e+06 M⁻¹ s⁻¹
Kd (recombinant human ICAM1 [9]): 3.2 nM
koff (recombinant human ICAM1 [9]): 0.000763 s⁻¹
kon (recombinant human ICAM1 [9]): 242000 M⁻¹ s⁻¹
EC50 (read off the curve) (recombinant human ICAM1 [10]): ~0.04 nM
EC50 [11]: 0.26 nM
Max Binding MFI [11]: 5010 MFI
B3: Anti-ICAM1 G12 (antibody, human IgG1, lambda, V domains shown)
VH: QVQLQESGGGLVQPGGSLRLSCAASGFTFSSYAMSWVRQAPGKGLEWVSAISGSGGSTYYADSVKGRFTISRDNSKNTLYLQMSSLRAEDTAFYYCANSAYTGGWYDYWGHGTLVTVSS
VL: ASELTQDPAVSVALGQTVKITCQGDSLRTYYASWYQQRPGQAPVLVIYGENSRPSGIPDRFSGSSSGNTASLTITGAQAEDEADYYCNSRDSSGNHLRVFGGGTKLTVLG
notes: Human IgG1 with a lambda light chain; also called anti-ICAM1 clone G12
